Key:
[1] = molecular target: T1, type 1 IGF receptor (IGF-1R) (human, UniProt P08069 31-1367); assay: competition binding to IGF receptors against radioactive wild type IGF
T1 construct: whole, on cells; also called IGF-1 receptor; CD221
Method: 200 ul of each of these was mixed rapidly with 1.8 ml of refold buffer. Refold buffer was 1.4 M urea, 100 mM glycine, 0.5 M NaCl, 19% ethanol, 0.5 mM GSSG, 4 mM GSH, pH 9.5.

dihydrofolate reductase = assay: cell-based or functional assay

T1 sequence (P08069 31-1367): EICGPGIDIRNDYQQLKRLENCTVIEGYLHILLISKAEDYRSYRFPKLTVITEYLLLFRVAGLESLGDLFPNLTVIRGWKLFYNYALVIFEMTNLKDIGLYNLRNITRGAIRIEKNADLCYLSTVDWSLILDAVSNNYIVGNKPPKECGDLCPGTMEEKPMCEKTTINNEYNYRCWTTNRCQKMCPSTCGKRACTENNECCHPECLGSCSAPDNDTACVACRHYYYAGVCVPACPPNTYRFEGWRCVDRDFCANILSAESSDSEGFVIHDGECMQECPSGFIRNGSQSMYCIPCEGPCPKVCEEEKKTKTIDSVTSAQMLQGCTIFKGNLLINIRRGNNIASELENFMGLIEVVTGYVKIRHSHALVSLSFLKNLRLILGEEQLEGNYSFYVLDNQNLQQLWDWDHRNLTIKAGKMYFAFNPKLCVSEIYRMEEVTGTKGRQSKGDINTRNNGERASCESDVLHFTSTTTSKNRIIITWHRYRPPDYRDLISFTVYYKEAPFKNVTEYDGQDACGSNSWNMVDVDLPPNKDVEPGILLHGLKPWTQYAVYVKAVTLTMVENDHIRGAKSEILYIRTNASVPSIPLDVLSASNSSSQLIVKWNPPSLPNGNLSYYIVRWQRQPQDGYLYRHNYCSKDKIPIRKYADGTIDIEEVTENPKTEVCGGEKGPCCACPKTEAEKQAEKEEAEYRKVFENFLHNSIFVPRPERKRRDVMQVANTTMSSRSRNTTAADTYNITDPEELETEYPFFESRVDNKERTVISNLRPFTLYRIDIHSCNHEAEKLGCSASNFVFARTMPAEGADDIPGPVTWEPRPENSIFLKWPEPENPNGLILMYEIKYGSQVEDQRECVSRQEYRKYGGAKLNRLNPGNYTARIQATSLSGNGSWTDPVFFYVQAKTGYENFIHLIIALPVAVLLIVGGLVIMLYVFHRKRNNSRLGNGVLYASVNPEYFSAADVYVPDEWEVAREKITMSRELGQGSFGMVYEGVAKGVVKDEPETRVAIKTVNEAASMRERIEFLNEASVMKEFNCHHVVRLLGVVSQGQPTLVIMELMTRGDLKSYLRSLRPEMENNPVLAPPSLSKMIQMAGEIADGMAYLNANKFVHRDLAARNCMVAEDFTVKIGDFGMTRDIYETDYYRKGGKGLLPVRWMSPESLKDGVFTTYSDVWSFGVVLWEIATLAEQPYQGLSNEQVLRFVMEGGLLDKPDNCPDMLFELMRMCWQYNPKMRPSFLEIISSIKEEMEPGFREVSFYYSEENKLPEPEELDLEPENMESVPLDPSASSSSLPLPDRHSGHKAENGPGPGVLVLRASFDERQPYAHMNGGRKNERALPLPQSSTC

Kd [1] [nM]	IC50 (inhibition of dihydrofolate reductase activity) (dihydrofolate reductase) [nEq/L]	Binder
~100		764IGF (ligand, also called His6-K5-IGF132) MVKGKHHHHHHNGKGKSKFVNQHLCGSHLVEALYLVCGDRGFYFNKPTGYGSSSRRAPQTGIVDECCFRSCDLRRLEMYCAPLKPAKSA
	99	LR3IGF-MTX (ligand, methotrexate on amino groups (3 lysine side chains and the N-terminal amino group available), MTX:protein ratio of 2.8) MFPAMPLSSLFVNGPRTLCGALVDALQFVCGDRGFYFNKPTGYGSSSRRAPQTGIVDECCFRSCDLRRLEMYCAPLKPAKSEA
~40		785IGF (ligand, also called mutTrx-IGF132) MVKQIESKTAFQEALDAAGDKLVVVDFSATWCGHCKMIKPFFHSLSEKYSNVIFLEVDVDDSQDVASESEVKSMPTFQFFKKGQKVGEFSGANKEKLEATINELVGSKSGHHHHHHSAKGFVNQHLCGSHLVEALYLVCGDRGFYFNKPTGYGSSSRRAPQTGIVDECCFRSCDLRRLEMYCAPLKPAKSA
~2		403IGF (ligand, T0001 describes it as His6-IGF; also called His6-IGF) MTSGHHHHHHSAGVNGFVNQHLCGSHLVEALYLVCGDRGFYFNKPTGYGSSSRRAPQTGIVDECCFRSCDLRRLEMYCAPLKPAKSA

Source: US20260207757A1 (IGF ONCOLOGY, published 2026)
